# Results published in paper doi:10.1101/2021.12.29.474442, “Microtubule plus-end regulation by centriolar cap proteins” (bioRxiv, 2021).
# B1: CP110-CC2 (residues 635-717) (domain or fragment, human, UniProt O43303-2 635-717, looked up)
# chain: GTSSKESEELLKSKMLAFEEMRKRLEEQHAQQLSLLIAEQEREQERLQKEIEEQEKMLKEKKAMTAEASELDINNAVELEWRK
# notes: CP110, human, residues 635-717 (coiled-coil domain CC2); Homodimer alone by SEC-MALS; one chain of it stands in the heterodimer with CPAP-CC1; source: E. coli BL21(DE3), purified (Ni-NTA, tag cleavage, SEC); not shown: thioredoxin, N-terminal, cleaved; His6, N-terminal, cleaved
# B2: CEP97^CP110-GFP-SII (chimera of CEP97 1-650 and CP110 581-991) (other, human, UniProt Q8IW35 1-650, looked up)
# chain: MAVARVDAALPPGEGSVVNWSGQGLQKLGPNLPCEADIHTLILDKNQIIKLENLEKCKRLIQLSVANNRLVRMMGVAKLTLLRVLNLPHNSIGCVEGLKELVHLEWLNLAGNNLKAMEQINSCTALQHLDLSDNNISQIGDLSKLVSLKTLLLHGNIITSLRMAPAYLPRSLAILSLAENEIRDLNEISFLASLTELEQLSIMNNPCVMATPSIPGFDYRPYIVSWCLNLRVLDGYVISQKESLKAEWLYSQGKGRAYRPGQHIQLVQYLATVCPLTSTLGLQTAEDAKLEKILSKQRFHQRQLMNQSQNEELSPLVPVETRASLIPEHSSPVQDCQISQESEPVIQVNSWVGINSNDDQLFAVKNNFPASVHTTRYSRNDLHLEDIQTDEDKLNCSLLSSESTFMPVASGLSPLSPTVELRLQGINLGLEDDGVADESVKGLESQVLDKEEEQPLWAANENSVQMMRSEINTEVNEKAGLLPCPEPTIISAILKDDNHSLTFFPESTEQKQSDIKKPENTQPENKETISQATSEKLPMILTQRSVALGQDKVALQKLNDAATKLQACWRGFYARNYNPQAKDVRYEIRLRRMQEHIVCLTDEIRRLRKERDEERIKKFVQEEAFRFLWNQVRSLQVWQQTVDQRLSSWHFEKVKRRLDLDIDGLQKENCPYVITSGITEQERQHLPEKRYPKGSGFVNKNKMLGTSSKESEELLKSKMLAFEEMRKRLEEQHAQQLSLLIAEQEREQERLQKEIEEQEKMLKEKKAMTAEASELDINNAVELEWRKISDSSLLETMLSQADSLHTSNSNSSGFTNSAMQYSFVSANEAPFYLWGSSTSGLTKLSVTRPFGRAKTRWSQVFSLEIQAKFNKITAVAKGFLTRRLMQTDKLKQLRQTVKDTMEFIRSFQSEAPLKRGIVSAQDASLQERVLAQLRAALYGIHDIFFVMDAAERMSILHHDREVRKEKMLRQMDKMKSPRVALSAATQKSLDRKKYMKAAEMGMPNKKFLVKQNPSETRVLQPNQGQNAPVHRLLSRQGSICRKNPKKAAKCCDNLRRQHSLG
# notes: CEP97, human, N-terminal amino acids 1-650; A dimer by single-molecule fluorescence intensity; No linker between the two parts is told. pTT5 based vector (Addgene #52355 is the vector); also called CEP97-CP110 chimera; CP110-CEP97 fusion
# How the values were obtained:
# [1] = target: the molecule itself; experiment: SEC-MALS; 20°C, Superdex S75 or S200 10/30, 20 mM HEPES pH 7.5, 150 mM NaCl, 2 mM DTT; about 7 mg/ml loaded; proteins alone and equimolar (also 2:1, 3:1) mixtures
# [2] = target: T1, CPAP-CC1 (residues 89-196) (human, UniProt Q9HC77 89-196); experiment: cross-linking; zero-length cross-linker DMTMM (60 mM, 6 min, 25°C) followed by mass spectrometry (xQuest); settings: both partners purified
# T1 construct: CPAP (CENPJ), human, residues 89-196 (coiled-coil domain CC1); Cleaved with HRV 3C (PreScission site); also called CPAP 89-196; source: E. coli BL21(DE3), purified (Ni-NTA, tag cleavage, SEC); not shown: thioredoxin, N-terminal, cleaved; His6, N-terminal, cleaved
# T1 sequence (looked up): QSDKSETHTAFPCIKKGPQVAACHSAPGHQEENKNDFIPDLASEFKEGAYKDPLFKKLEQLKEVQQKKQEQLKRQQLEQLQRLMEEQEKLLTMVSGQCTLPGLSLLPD
# [3] = target: the molecule itself; experiment: single-molecule fluorescence intensity counting (TIRF); single molecules immobilised on coverslips in MRB80 buffer; intensity compared with purified GFP (monomers) and GFP-EB3 (dimers)
Binder,stoichiometry N [1],binding result [2],stoichiometry N [3]
B1,2,binds,–
B2,–,–,2
